How the values were obtained:
[1] = target: T1, anti-CD19 CAR comprising the anti-CD19 scFv of SEQ ID NO:1; assay: flow cytometry on anti-CD19 CAR T cells, dilution 1:200
T1 construct: also called anti-CD19 chimeric antigen receptor; anti-CD19 CAR T cells
Source text: (§1) The 29E4B5 antibodies produced using the first or the second method were compared with a reference anti-FMC63-scFv antibody (rec_mab3) for the ability to bind to the anti-CD19 CAR T cells using flow cytometry. Both methods produced 29E4B5 antibodies with higher affinity to the anti-CD19 cells than rec_mab3, showing higher CAR positive percentage even at 1:6,400 dilutions (Table 9).

[2] = target: T1, anti-CD19 CAR comprising the anti-CD19 …; assay: flow cytometry on anti-CD19 CAR T cells, dilution 1:400
Source text: as §1

[3] = target: T1, anti-CD19 CAR comprising the anti-CD19 …; assay: flow cytometry on anti-CD19 CAR T cells, dilution 1:800
Source text: as §1

[4] = target: T1, anti-CD19 CAR comprising the anti-CD19 …; assay: flow cytometry on anti-CD19 CAR T cells, dilution 1:3200
Source text: as §1

[5] = target: T1, anti-CD19 CAR comprising the anti-CD19 …; assay: flow cytometry on anti-CD19 CAR T cells, dilution 1:6400
Source text: as §1

[6] = target: T2, Recombinant FMC63-scFv protein; assay: indirect ELISA, purified native antibody at 250 ng/ml (1:4,000)
T2 construct: also called His-tagged single-chain variable fragment of mouse anti-human CD19 antibody FMC63; coating antigen A
Description: (§2) In the first (native) method, hybridoma cells (29E4B5) were cultured in low IgG culture medium in a roller bottle for 10 days. The supernatants were collected and protein A purified to obtain purified antibodies. The purified antibodies were analyzed for the ability to bind the FMC63-scFv protein and anti-CD19 CAR T cells using ELISA (Table 8).
(§3) A: Recombinant FMC63-scFv protein B: […] (FMC63-scFv linker peptide)(SEQ ID NO: 6) C: His-tagged protein D: Total human IgG The titer was the highest dilution where the Signal/Blank (S/B) ratio was ≥2.1. OD₄₅₀ for Blank was the average of two technical replicates. The starting concentration was 1 mg/ml, and the corresponding dilution ratio was calculated based on the actual concentration.

[7] = target: T3, FMC63-scFv linker peptide; assay: as above
T3 construct: also called coating antigen B
T3 peptide: TGSTSGSGKPGSGEGSTKG
Description: as §2, §3

[8] = target: T4, irrelevant His-tagged protein; assay: as above
T4 construct: also called coating antigen C
Description: as §2, §3

[9] = target: T5, Total human IgG (human); assay: as above
T5 construct: also called coating antigen D
Description: as §2, §3

[10] = target: T2, Recombinant FMC63-scFv protein; assay: indirect ELISA, purified native antibody at 500 ng/ml (1:2,000)
Description: as §2, §3

[11] = target: T3, FMC63-scFv linker peptide; assay: as above
Description: as §2, §3

[12] = target: T4, irrelevant His-tagged protein; assay: as above
Description: as §2, §3

[13] = target: T5, Total human IgG; assay: as above
Description: as §2, §3

[14] = target: T2, Recombinant FMC63-scFv protein; assay: indirect ELISA, purified native antibody at 15.62 ng/ml (1:64,000)
Description: as §2, §3

[15] = target: T3, FMC63-scFv linker peptide; assay: as above
Description: as §2, §3

[16] = target: T4, irrelevant His-tagged protein; assay: as above
Description: as §2, §3

[17] = target: T5, Total human IgG; assay: as above
Description: as §2, §3

[18] = target: T2, Recombinant FMC63-scFv protein; assay: indirect ELISA, purified native antibody at 3.90 ng/ml (1:256,000)
Description: as §2, §3

[19] = target: T3, FMC63-scFv linker peptide; assay: as above
Description: as §2, §3

[20] = target: T4, irrelevant His-tagged protein; assay: as above
Description: as §2, §3

[21] = target: T5, Total human IgG; assay: as above
Description: as §2, §3

[22] = target: T2, Recombinant FMC63-scFv protein; assay: indirect ELISA, purified native antibody at 31.25 ng/ml (1:32,000)
Description: as §2, §3

[23] = target: T3, FMC63-scFv linker peptide; assay: as above
Description: as §2, §3

[24] = target: T4, irrelevant His-tagged protein; assay: as above
Description: as §2, §3

[25] = target: T5, Total human IgG; assay: as above
Description: as §2, §3

[26] = target: T2, Recombinant FMC63-scFv protein; assay: indirect ELISA, purified native antibody at 7.81 ng/ml (1:128,000)
Description: as §2, §3

[27] = target: T2, Recombinant FMC63-scFv protein; assay: indirect ELISA, purified native antibody; highest dilution with Signal/Blank >=2.1
Description: as §2, §3

[28] = target: T3, FMC63-scFv linker peptide; assay: as above
Description: as §2, §3

[29] = target: T4, irrelevant His-tagged protein; assay: as above
Description: as §2, §3

[30] = target: T5, Total human IgG; assay: as above
Description: as §2, §3

T2 sequence (scFv, as listed by the source): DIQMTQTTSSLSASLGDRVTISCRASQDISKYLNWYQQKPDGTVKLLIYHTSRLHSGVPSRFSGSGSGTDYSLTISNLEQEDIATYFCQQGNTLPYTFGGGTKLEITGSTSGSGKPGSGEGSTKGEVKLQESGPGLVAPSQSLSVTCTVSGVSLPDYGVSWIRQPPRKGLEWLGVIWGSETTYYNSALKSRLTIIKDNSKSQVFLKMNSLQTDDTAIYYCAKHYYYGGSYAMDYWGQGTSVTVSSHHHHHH

B1: mouse anti-FMC63-scFv monoclonal antibody 29E4B5 (antibody, mouse IgG1, kappa, V domains shown)
VH: EVKLLQSGGGLVQPGGSLKLSCAASGIDFSRYWMSWVRRAPGKGLEWIGEINLDSSTKNYAPSLKDKFIISRDNAKNTLYLQMSKVRSEDTALYYCARNYVGMDYWGQGTSVTVSS
VL: DIVLTQSPASLAVSLGQRATISCRASKSVSSSDYTYMHWYQQKPGQPPKLLIYLASNLESGVPARFSGSGSGTDFTLNIHPVEEEDAATYYCQHSRELPPTFGGGTKLEIKR
notes: Hybridoma-derived antibody (culture supernatant, microscale purified, or protein A purified native lot), isotype IgG1, kappa; These are left out by the residue ranges; also called 29E4B5-1; 29E4B5-1 (Native)
% CAR+ [1]: 67.9% | % CAR+ [2]: 67.6% | % CAR+ [3]: 67.6% | % CAR+ [4]: 62.9% | % CAR+ [5]: 60.5% | OD450 [6]: 1.85 OD450 | OD450 [7]: 0.062 OD450 | OD450 [8]: 0.054 OD450 | OD450 [9]: 0.079 OD450 | OD450 [10]: 1.89 OD450 | OD450 [11]: 0.059 OD450 | OD450 [12]: 0.059 OD450 | OD450 [13]: 0.08 OD450 | OD450 [14]: 0.983 OD450 | OD450 [15]: 0.067 OD450 | OD450 [16]: 0.088 OD450 | OD450 [17]: 0.067 OD450 | OD450 [18]: 0.407 OD450 | OD450 [19]: 0.068 OD450 | OD450 [20]: 0.084 OD450 | OD450 [21]: 0.073 OD450 | OD450 [22]: 1.32 OD450 | OD450 [23]: 0.061 OD450 | OD450 [24]: 0.059 OD450 | OD450 [25]: 0.076 OD450 | OD450 [26]: 0.676 OD450 | Titer [27]: 512000 dilution (1:x) | Titer [28]: < 1000 dilution (1:x) | Titer [29]: < 1000 dilution (1:x) | Titer [30]: < 1000 dilution (1:x)
